The target of this assay is T1, LMO4 second LIM domain, residues 77-147 (in the tethered complex) (mouse, UniProt P61969 77-147).
T1 construct: LMO4, mouse, LIM2 domain, residues 77-147; also called LMO4_(LIM2); LMO4_(77–147)
T1 sequence (looked up): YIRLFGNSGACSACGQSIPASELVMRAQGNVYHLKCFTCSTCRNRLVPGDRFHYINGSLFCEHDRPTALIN
Nature of the assay: NMR solution structure; the two domains tethered on one chain by a glycine-serine linker; 20 mM sodium acetate pH 5.0, 35 mM NaCl, 0.5 mM TCEP-HCl. To be noted: both partners purified.

B1: DEAF1 residues 404-418 (in the tethered complex) (peptide, UniProt Q9Z1T5-1 404-418, looked up)
chain: IAPFPEAALPTSHPK
notes: Stood in the assay joined through a glycine-serine linker to the C-terminus of LMO4 77-147 on one chain; also called the DEAF1 peptide
In the case of B1, the binding result was “binds”.
